± gives the standard deviation of the averaged measurements.
Each sequence was assayed on Saccharomyces cerevisiae (assay: protein stability index of tFT-peptide fusion (C-terminal peptide) (PSI (0-1 scale)); higher = more stable (slower turnover)). Conditions: genetic background: wild type; temperature: 30 C.
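Also: PSI is a weighted mean of sequencing reads over stability bins, variants kept only with over 10 reads, mCherry proximal and sfGFP distal, peptide attached via GGGS linker.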

Row | Sequence | protein stability index
1 | VQGGRNGEGGRG | 0.651 ± 0.081
2 | VQIALTLNSPSL | 0.605 ± 0.058
3 | VQLSISCEPPSN | 0.7391 ± 0.007
4 | VQMKVKKRLNEW | 0.6744 ± 0.0046
5 | VQYITSGASRWG | 0.6309 ± 0.00084
6 | VRAVGSIILPPG | 0.6558 ± 0.00093
7 | VRCAAIKLIGRI | 0.675 ± 0.051
8 | VRCKGLGLAVCA | 0.541 ± 0.062
9 | VRCWGRGSGVGD | 0.666 ± 0.036
10 | VREILKDGIFDP | 0.717 ± 0.043
11 | VRERGAGAVAGS | 0.715 ± 0.044
12 | VRERVRRWVGDG | 0.5752 ± 0.0053
13 | VRGGGRARRRGS | 0.7347 ± 0.0044
14 | VRGKSARRSSRR | 0.665 ± 0.029
15 | VRISGLSALPHF | 0.70793 ± 9.5e-05
16 | VRLMARFESFLW | 0.69 ± 0.023
17 | VRPLPAPVQPHP | 0.741 ± 0.019
18 | VRPYPGDDVSWR | 0.693 ± 0.061
19 | VRRGVGAVVFGG | 0.655 ± 0.08
20 | VRRRLRLFLMWG | 0.588 ± 0.0052
21 | VRRVHAMVLLGG | 0.65 ± 0.014
22 | VRTLVGQVWETV | 0.721 ± 0.031
23 | VRVALISDRGKQ | 0.738 ± 0.025
24 | VSADGAGCAVRG | 0.709 ± 0.052
25 | VSAYLKNSGYRE | 0.6955 ± 0.0061
26 | VSAYWFLLFGSV | 0.662 ± 0.13

Row | Sequence | protein stability index
27 | VSCHSPPVPHDP | 0.702 ± 0.011
28 | VSCVRGFFLFPC | 0.699 ± 0.022
29 | VSEEFAGSGTKS | 0.67 ± 0.064
30 | VSFPHSRLSLTI | 0.747 ± 0.02
31 | VSFSSLLRFCRG | 0.671 ± 0.0091
32 | VSGDLRRWRNSE | 0.673 ± 0.043
33 | VSGEGRGRTTPD | 0.665 ± 0.013
34 | VSGFVAALRIFL | 0.657 ± 0.025
35 | VSGGGEWRDAYG | 0.677 ± 0.04
36 | VSGMRRRFGNRL | 0.756 ± 0.11
37 | VSHVRVNESAAN | 0.677 ± 0.0078
38 | VSKVGDMNSGSK | 0.651 ± 0.013
39 | VSLGALFEFRAA | 0.745 ± 0.015
40 | VSLSSLPRRFSP | 0.75 ± 0.04
41 | VSNIVGRSLSCR | 0.688 ± 0.014
42 | VSNVSDSGHPYL | 0.6777 ± 0.0021
43 | VSRHRRLAGMIW | 0.735 ± 0.018
44 | VSRPPPRNPTPP | 0.728 ± 0.078
45 | VSSVSLRVRVLF | 0.564 ± 0.08
46 | VSVFRFALGLQV | 0.563 ± 0.0058
47 | VSVGVPGWYGMI | 0.6336 ± 0.0049
48 | VSVWLGSARWVG | 0.628 ± 0.0086
49 | VSWRGSFQGIYG | 0.685 ± 0.043
50 | VSYLAQSFLPNL | 0.69928 ± 9.6e-05
51 | VSYRLDMHFLYY | 0.6062 ± 0.0046
52 | VTISLGGGGGMQ | 0.684 ± 0.12

Row | Sequence | protein stability index
53 | VTISLGVGGGMQ | 0.725 ± 0.048
54 | VTRGGKLRRGRV | 0.638 ± 0.089
55 | VTRRIPPRGGPR | 0.72 ± 0.074
56 | VVCFGNFGGVRV | 0.778 ± 0.049
57 | VVGAALRDGPRE | 0.71 ± 0.012
58 | VVGAIRWGGGRR | 0.705 ± 0.014
59 | VVGAVSASLAGV | 0.662 ± 0.056
60 | VVGGGDWRWGVW | 0.7709 ± 0.0046
61 | VVGNGGWVEGEV | 0.621 ± 0.13
62 | VVGSAGGGGFVL | 0.6717 ± 0.0065
63 | VVGSVPVSAFWE | 0.746 ± 0.075
64 | VVGSWGRGGCGG | 0.639 ± 0.0017
65 | VVGVCLDIVCSP | 0.519 ± 0.013
66 | VVGWSSGVVEVA | 0.688 ± 0.035
67 | VVHECIGVYGTV | 0.634 ± 0.017
68 | VVLFCPFISSED | 0.726 ± 0.012
69 | VVLGQGRGVGAM | 0.669 ± 0.012
70 | VVPSLLVLPFFC | 0.51 ± 0.01
71 | VVRLEGGSGAVW | 0.703 ± 0.0085
72 | VVRLGGVSWAGG | 0.649 ± 0.016
73 | VVRLGLVSGCGG | 0.581 ± 0.013
74 | VVRMFRLGNGNF | 0.7 ± 0.0083
75 | VVRQADVLLGLV | 0.662 ± 0.019
76 | VVSLPITGTVTL | 0.722 ± 0.029
77 | VVSSFVCLLRRG | 0.654 ± 0.055
78 | VVVGGVGGFFGC | 0.754 ± 0.015

Row | Sequence | protein stability index
79 | VVVGQGPLRGGA | 0.714 ± 0.021
80 | VVVIGVWGGGVG | 0.612 ± 0.019
81 | VVVRVAEGGGRW | 0.666 ± 0.047
82 | VVWCSWGFLFSA | 0.625 ± 0.042
83 | VWCVWGVGGLWA | 0.648 ± 0.025
84 | VWGGGGVTVWLV | 0.6149 ± 0.0054
85 | VWGGGSWGGCGG | 0.744 ± 0.082
86 | VWGWGSWGGCGG | 0.705 ± 0.066
87 | VWHWGRSLYLAA | 0.525 ± 0.021
88 | VWRGGGVRLGRL | 0.75 ± 0.046
89 | VWSWGEGGGAVV | 0.7 ± 0.035
90 | VWVCGLGGGVLG | 0.777 ± 0.021
91 | VYGRRNVRLNIV | 0.582 ± 0.068
92 | VYGVVVWLFGFL | 0.678 ± 0.0095
93 | VYHCRLSQHRTL | 0.717 ± 0.034
94 | VYSSVPGRIAID | 0.708 ± 0.008
95 | VYYDERLGDGHS | 0.866 ± 0.021
96 | WAGGGVWRVGGR | 0.715 ± 0.042
97 | WAKRERRNEGRR | 0.71 ± 0.011
98 | WCGGGGRGGVAG | 0.72 ± 0.047
99 | WCIPEAPVATSR | 0.684 ± 0.0083
100 | WCSRRIDWSSAP | 0.7318 ± 0.002
101 | WDGWWGGAGVGE | 0.695 ± 0.077
102 | WDVGSHRGGFWL | 0.713 ± 0.02
103 | WERGGGGRVCGW | 0.754 ± 0.02
104 | WFCSVICGVFSV | 0.5678 ± 0.00093

Row | Sequence | protein stability index
105 | WFKALCPIFCKD | 0.62 ± 0.015
106 | WFLRSFGIQRSG | 0.511 ± 0.0047
107 | WFRLRFASGRRS | 0.682 ± 0.054
108 | WFVCVARCPFPF | 0.623 ± 0.035
109 | WFVTVISSRFGS | 0.6444 ± 0.0011
110 | WGARSRFRWGRS | 0.7284 ± 0.0052
111 | WGDGSGRVWEIS | 0.68 ± 0.03
112 | WGFGRCELMLGS | 0.708 ± 0.035
113 | WGGGGRLAGLLG | 0.687 ± 0.037
114 | WGGGRGLRGRWG | 0.694 ± 0.057
115 | WGGRAVGVLGVG | 0.629 ± 0.048
116 | WGGRSWGLRRGC | 0.664 ± 0.028
117 | WGGTAGWLHIGV | 0.747 ± 0.076
118 | WGGVRSGGACCA | 0.72 ± 0.075
119 | WGKRGGLGALSR | 0.653 ± 0.06
120 | WGLLCPLRSDNV | 0.705 ± 0.017
121 | WGRGETLCSSVP | 0.72 ± 0.011
122 | WGRGGSRGSWGA | 0.716 ± 0.014
123 | WGRNGRRMEVTK | 0.687 ± 0.017
124 | WGSVGVVGLFSG | 0.69 ± 0.057
125 | WGTDVGAGCVAR | 0.741 ± 0.027
126 | WGVCWRVWGFGC | 0.677 ± 0.074
127 | WGWGGGWSGACL | 0.679 ± 0.0071
128 | WGWGRWEMVGRT | 0.695 ± 0.011
129 | WGYGRGRVWEIS | 0.6137 ± 0.0011
130 | WHLQYTLIPYEA | 0.635 ± 0.054

Row | Sequence | protein stability index
131 | WIGRSVGVELCR | 0.807 ± 0.13
132 | WIKKGKNRLRKT | 0.586 ± 0.05
133 | WISAPTDRNITN | 0.713 ± 0.0095
134 | WISLRRIKSNRE | 0.802 ± 0.014
135 | WKYRGVGGVGMG | 0.745 ± 0.097
136 | WLFVGGWGVFGG | 0.674 ± 0.068
137 | WLVRNVVGGGVC | 0.722 ± 0.061
138 | WLYGEFGALVVD | 0.685 ± 0.033
139 | WNWSIITTENKP | 0.7 ± 0.064
140 | WPGICVWAGSPG | 0.717 ± 0.06
141 | WPVRNRIQPPPR | 0.705 ± 0.051
142 | WQGSASCSVVLV | 0.55 ± 0.043
143 | WQIDVWDSNCVM | 0.692 ± 0.027
144 | WQWDMESKRKKE | 0.7056 ± 0.0026
145 | WRFTSCCPDPAT | 0.772 ± 0.076
146 | WRLDDPTLISNI | 0.693 ± 0.032
147 | WRMGCSVRGVVG | 0.693 ± 0.055
148 | WRPVSVVSPLSD | 0.677 ± 0.081
149 | WRSSSFFPAAVG | 0.6715 ± 0.0042
150 | WRVDKREPPGRL | 0.707 ± 0.034
151 | WSGDLRNIEFAR | 0.816 ± 0.1
152 | WSGQWCRGRAGG | 0.706 ± 0.018
153 | WSGWGYGISALL | 0.681 ± 0.047
154 | WSIEESLGIWLR | 0.538 ± 0.021
155 | WSLPILPPPSPD | 0.663 ± 0.032
156 | WSQDRLFLGFGC | 0.875 ± 0.038

Row | Sequence | protein stability index
157 | WSRLAGMGRGGA | 0.764 ± 0.013
158 | WSRSGGGEKYGV | 0.69 ± 0.0094
159 | WSSGLHHLPPSP | 0.706 ± 0.091
160 | WSSPCTGGVGKC | 0.63 ± 0.0068
161 | WSSSPAFKPSRR | 0.655 ± 0.098
162 | WSVVRVGGCGAR | 0.699 ± 0.024
163 | WSWGGLHRELAA | 0.744 ± 0.0099
164 | WSWRGMVELVEE | 0.642 ± 0.069
165 | WTPGTPVFSKGI | 0.714 ± 0.035
166 | WVGGGLVVFGWK | 0.6944 ± 0.0025
167 | WVGGVVMVPVLL | 0.542 ± 0.0094
168 | WVGLGRVWVKLG | 0.697 ± 0.044
169 | WVLGGVAPPAVL | 0.694 ± 0.048
170 | WVLPFLGAWLEL | 0.606 ± 0.063
171 | WVPCGYIERAPL | 0.582 ± 0.05
172 | WVSAMGIPRVVG | 0.574 ± 0.05
173 | WVSGLVSIGACL | 0.683 ± 0.0076
174 | WVTCALVVQSRF | 0.693 ± 0.0073
175 | WVVLGGRSGCGA | 0.667 ± 0.053
176 | WWEGSFRVGAVR | 0.638 ± 0.008
177 | WWGCRSVGVGLG | 0.675 ± 0.025
178 | WWGWGGVACLLL | 0.693 ± 0.059
179 | WWVGVVGCGSGA | 0.676 ± 0.11
180 | WYRIPGASHGPP | 0.662 ± 0.034
181 | YADTCEGDNLTS | 0.661 ± 0.03
182 | YAKKIDTIIILT | 0.54 ± 0.009

Row | Sequence | protein stability index
183 | YANFFVVGELGP | 0.687 ± 0.02
184 | YAYLGSNLKQTA | 0.703 ± 0.03
185 | YCHVPVVGSWIP | 0.735 ± 0.067
186 | YCLERVPAEYDG | 0.67 ± 0.019
187 | YCVMEVAGLEWE | 0.69 ± 0.038
188 | YDFHWAYFHSLY | 0.7113 ± 0.0035
189 | YFCGARSVGPGD | 0.717 ± 0.035
190 | YFVAVLGRCIRG | 0.6519 ± 0.0011
191 | YGAGLSHLFRIS | 0.636 ± 0.041
192 | YGGGVWRGVALG | 0.6914 ± 0.0052
193 | YGLVSFVCFNGG | 0.679 ± 0.042
194 | YGTGNGRRTYFD | 0.735 ± 0.04
195 | YGVLEYLRDLVF | 0.689 ± 0.016
196 | YIGSVCLCVSPV | 0.5999 ± 0.0038
197 | YIHQRKGRKPNE | 0.622 ± 0.057
198 | YINTKKKKINKT | 0.655 ± 0.014
199 | YIQGAPGGLGYP | 0.713 ± 0.0077
200 | YKGQVKKNNPQC | 0.726 ± 0.033
201 | YKGRYDCRVGGR | 0.682 ± 0.0096
202 | YKKVKADKKKRM | 0.687 ± 0.017
